Measured values from patent US20200317768A1 (published 2020).
Changes are numbered by the printed parent chain.

Legend:
[1] = biological target: T1, human FcγRIIaH extracellular domain, C-terminal His-tag (human, UniProt P12318 34-217); test: SPR (Biacore); KD of SG1 / KD of variant
T1 construct: also called human FcγRIIa (type H); FcgRIIaH
T1 sequence: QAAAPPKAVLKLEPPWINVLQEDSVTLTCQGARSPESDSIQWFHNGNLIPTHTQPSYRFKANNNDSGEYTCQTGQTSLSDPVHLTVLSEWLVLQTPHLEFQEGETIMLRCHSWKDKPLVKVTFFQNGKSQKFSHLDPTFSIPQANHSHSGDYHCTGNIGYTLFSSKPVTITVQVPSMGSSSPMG
Protocol: (§1) The kinetic analysis of interactions between these antibodies and FcγR was carried out using BIACORE® T200 or BIACORE® 4000 (GE Healthcare). HBS-EP+ (GE Healthcare) was used as the running buffer, and the measurement temperature was set to 25° C. A chip produced by immobilizing Protein A. Protein A/G or mouse anti-human IgG kappa light chain (BD Biosciences) onto a Series S Sensor Chip CM4 or CM5 (GE Healthcare) by the amine-coupling method was used. […] After the measurement, the antibody captured on the chip was washed off by allowing reaction with 10 mM glycine-HCl, pH1.5 and 25 mM NaOH so that the chip was regenerated and used repeatedly. The sensorgrams obtained as measurement results were analyzed by the 1:1 Langmuir binding model using the BIACORE® Evaluation Software to calculate the binding rate constant ka (L/mol/s) and dissociation rate constant kd (l/s), and the dissociation constant KD (mol/L) was calculated from these values. […] Regarding such interactions, KD values were calculated using the following 1:1 binding model described in BIACORE® T100 Software Handbook BR1006-48 Edition AE.
(§2) The behavior of interacting molecules according to the 1:1 binding model on BIACORE® can be described by Equation 1: Req=C·R max/(KD+C)+RI, wherein, Req is a plot of steady-state binding levels to analyte concentration. C is concentration, RI is bulk refractive index contribution in the sample, and Rmax is analyte binding capacity of the surface. When this equation is rearranged, KD can be expressed as Equation 2: KD=C·Rmax/(Req−RI)−C. KD can be calculated by substituting the values of Rmax, RI, and C into Equation 1 or Equation 2. From the current measurement conditions, RI=0, C=2 μmol/L can be used.

[2] = biological target: T2, human FcγRIIb extracellular domain, C-terminal His-tag (human, UniProt P31994 43-217); test: SPR (Biacore); KD of SG1 / KD of variant
T2 construct: also called human FcgRIIb; FcgRIIb
T2 sequence: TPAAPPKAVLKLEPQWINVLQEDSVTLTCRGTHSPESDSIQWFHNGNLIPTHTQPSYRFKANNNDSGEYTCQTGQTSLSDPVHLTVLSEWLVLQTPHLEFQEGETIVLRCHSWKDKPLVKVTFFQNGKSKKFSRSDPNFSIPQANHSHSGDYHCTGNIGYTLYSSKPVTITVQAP
Protocol: as §1, §2

[3] = biological target: T3, cynomolgus monkey FcγRIIa2 extracellular domain, C-terminal His-tag (cynomolgus monkey); test: SPR (Biacore); KD of SG1 / KD of variant
T3 construct: also called cyno FcγRIIa2; cynoFcgRIIa2
T3 chain: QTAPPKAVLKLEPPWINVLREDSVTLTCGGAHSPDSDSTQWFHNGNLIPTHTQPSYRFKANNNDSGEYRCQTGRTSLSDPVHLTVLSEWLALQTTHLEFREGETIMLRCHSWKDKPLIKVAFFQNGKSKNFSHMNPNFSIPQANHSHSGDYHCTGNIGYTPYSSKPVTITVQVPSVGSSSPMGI
Protocol: as §1, §2

[4] = biological target: T4, cynomolgus monkey FcγRIIb extracellular domain, C-terminal His-tag (cynomolgus monkey); test: SPR (Biacore); KD of SG1 / KD of variant
T4 construct: also called cyno FcγRIIb; cynoFcγRIIb
T4 chain: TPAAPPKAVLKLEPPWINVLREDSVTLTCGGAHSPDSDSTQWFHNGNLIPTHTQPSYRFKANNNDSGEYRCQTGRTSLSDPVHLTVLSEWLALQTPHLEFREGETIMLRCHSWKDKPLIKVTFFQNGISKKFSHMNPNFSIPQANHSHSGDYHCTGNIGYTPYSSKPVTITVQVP
Protocol: as §1, §2

[5] = biological target: T5, cynomolgus monkey FcγRIIa3 extracellular domain, C-terminal His-tag (cynomolgus monkey); test: SPR (Biacore); KD of SG1 / KD of variant
T5 construct: also called cyno FcγRIIa3; cynoFcgRIIa3
T5 chain: T3 chain with K127I, N130K, H133P, Q142R
Protocol: as §1, §2

[6] = biological target: T6, human FcγRIIIaV extracellular domain, C-terminal His-tag (human, UniProt P08637 17-208); test: SPR (Biacore); KD of SG1 / KD of variant
T6 construct: also called human FcgRIIIaV; FcgRIIIaV
T6 sequence (P08637 17-208 F176V): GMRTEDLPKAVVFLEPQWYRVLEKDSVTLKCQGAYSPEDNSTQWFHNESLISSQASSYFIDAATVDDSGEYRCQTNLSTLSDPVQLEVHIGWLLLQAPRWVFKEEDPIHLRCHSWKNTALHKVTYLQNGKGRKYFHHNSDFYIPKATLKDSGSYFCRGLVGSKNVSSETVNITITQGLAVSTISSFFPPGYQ
Protocol: as §1, §2

[7] = biological target: T7, cynomolgus monkey FcγRIIa1 extracellular domain, C-terminal His-tag (cynomolgus monkey); test: SPR (Biacore); KD of SG1 / KD of variant
T7 construct: also called cyno FcγRIIa1; cynoFcgRIIa1
T7 chain: T3 chain with T95P, A121T, K127I, S128A, N130K, N135D, Q142R
Protocol: as §1, §2

[8] = biological target: T8, human FcγRIIaR extracellular domain, C-terminal His-tag (human, UniProt P12318 34-217); test: SPR (Biacore); KD of SG1 / KD of variant
T8 construct: also called human FcγRIIa (type R); FcgRIIaR
T8 chain: T1 sequence with H134R
Protocol: as §1, §2

[9] = biological target: T9, cynomolgus monkey FcγRIIIaS extracellular domain, C-terminal His-tag (cynomolgus monkey, UniProt A3RFZ7 21-206 (rhesus entry)); test: SPR (Biacore), KD of SG1 / KD of variant
T9 construct: also called cyno FcγRIIIaS; cynoFcγRIIIaS; not shown: His-tag added to C-terminus
T9 sequence (A3RFZ7 21-206): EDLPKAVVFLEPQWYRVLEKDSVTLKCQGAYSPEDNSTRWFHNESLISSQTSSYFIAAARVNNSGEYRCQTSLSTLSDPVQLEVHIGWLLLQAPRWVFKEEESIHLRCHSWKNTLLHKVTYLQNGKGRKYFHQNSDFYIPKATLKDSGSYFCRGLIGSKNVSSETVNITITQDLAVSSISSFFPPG
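Note: relative to parent M103205H795-SG1 carrying the SG1 human heavy chain constant region.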

B1: MS_M103205H795-SG1/M103202L889-SK1 (antibody, human IgG1, kappa)
heavy: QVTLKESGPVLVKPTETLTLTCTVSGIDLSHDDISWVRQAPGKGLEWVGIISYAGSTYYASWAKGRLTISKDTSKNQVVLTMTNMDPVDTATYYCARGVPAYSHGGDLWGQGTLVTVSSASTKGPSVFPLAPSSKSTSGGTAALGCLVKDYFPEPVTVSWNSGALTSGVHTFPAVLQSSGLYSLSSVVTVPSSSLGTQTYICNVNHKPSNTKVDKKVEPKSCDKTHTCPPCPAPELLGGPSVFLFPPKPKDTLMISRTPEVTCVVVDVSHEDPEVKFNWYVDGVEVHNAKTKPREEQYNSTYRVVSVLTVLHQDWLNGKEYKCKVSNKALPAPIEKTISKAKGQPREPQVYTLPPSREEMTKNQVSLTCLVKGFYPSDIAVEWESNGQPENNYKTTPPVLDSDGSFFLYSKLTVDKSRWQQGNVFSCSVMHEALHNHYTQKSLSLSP
light: DIVMTQSPATLSLSPGERATLSCTSSQSVYHANWLSWFQQKPGQPPKLLIYWASTLAYGVPSRFSGSGSGTDFTLTISSLQPEDAATYYCAGGYGGGRYAFGQGTKVEIKRTVAAPSVFIFPPSDEQLKSGTASVVCLLNNFYPREAKVQWKVDNALQSGNSQESVTEQDSKDSTYSLSSTLTLSKADYEKHKVYACEVTHQGLSSPVTKSFNRGEC
notes: Parent of the Fc variants; also called MS1032LO06-SG1
KD fold (SG1 = 1) [1]: 1 fold
KD fold (SG1 = 1) [2]: 1 fold
KD fold (SG1 = 1) [3]: 1 fold
KD fold (SG1 = 1) [4]: 1 fold
KD fold (SG1 = 1) [5]: 1 fold
KD fold (SG1 = 1) [6]: 1 fold
KD fold (SG1 = 1) [7]: 1 fold
KD fold (SG1 = 1) [8]: 1 fold

B2: M103205H795-MY001/M103202L889-SK1 (antibody, human IgG1, kappa)
heavy: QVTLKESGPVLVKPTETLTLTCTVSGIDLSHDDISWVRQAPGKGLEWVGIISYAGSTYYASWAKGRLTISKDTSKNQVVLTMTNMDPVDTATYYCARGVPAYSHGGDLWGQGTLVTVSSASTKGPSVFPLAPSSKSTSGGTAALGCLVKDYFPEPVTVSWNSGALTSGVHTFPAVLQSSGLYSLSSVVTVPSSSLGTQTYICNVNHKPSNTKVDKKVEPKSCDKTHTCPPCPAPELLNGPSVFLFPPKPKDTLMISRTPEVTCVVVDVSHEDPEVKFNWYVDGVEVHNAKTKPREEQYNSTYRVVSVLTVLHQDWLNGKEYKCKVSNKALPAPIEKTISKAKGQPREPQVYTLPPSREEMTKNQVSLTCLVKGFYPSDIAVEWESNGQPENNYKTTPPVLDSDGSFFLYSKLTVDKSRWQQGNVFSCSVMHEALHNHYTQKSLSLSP
light: B1 light
notes: Substitutions introduced into M103205H795-SG1; expressed with M103202L889-SK1 as light chain
KD fold (SG1 = 1) [1]: 0.2 fold
KD fold (SG1 = 1) [2]: 0.6 fold
KD fold (SG1 = 1) [3]: 1.4 fold
KD fold (SG1 = 1) [4]: 1 fold
KD fold (SG1 = 1) [5]: 1.1 fold
KD fold (SG1 = 1) [6]: 0.04 fold
KD fold (SG1 = 1) [7]: 1.1 fold
KD fold (SG1 = 1) [8]: 0.1 fold

B3: M103205H795-MY047/M103202L889-SK1 (antibody, human IgG1, kappa)
heavy: not shown
light: B1 light
notes: as for B2
KD fold (SG1 = 1) [1]: 0.2 fold
KD fold (SG1 = 1) [2]: 1.2 fold
KD fold (SG1 = 1) [3]: 1.5 fold
KD fold (SG1 = 1) [4]: 0.7 fold
KD fold (SG1 = 1) [5]: 0.7 fold
KD fold (SG1 = 1) [7]: 0.7 fold
KD fold (SG1 = 1) [8]: 0.5 fold

B4: M103205H795-MY048/M103202L889-SK1 (antibody, human IgG1, kappa)
heavy: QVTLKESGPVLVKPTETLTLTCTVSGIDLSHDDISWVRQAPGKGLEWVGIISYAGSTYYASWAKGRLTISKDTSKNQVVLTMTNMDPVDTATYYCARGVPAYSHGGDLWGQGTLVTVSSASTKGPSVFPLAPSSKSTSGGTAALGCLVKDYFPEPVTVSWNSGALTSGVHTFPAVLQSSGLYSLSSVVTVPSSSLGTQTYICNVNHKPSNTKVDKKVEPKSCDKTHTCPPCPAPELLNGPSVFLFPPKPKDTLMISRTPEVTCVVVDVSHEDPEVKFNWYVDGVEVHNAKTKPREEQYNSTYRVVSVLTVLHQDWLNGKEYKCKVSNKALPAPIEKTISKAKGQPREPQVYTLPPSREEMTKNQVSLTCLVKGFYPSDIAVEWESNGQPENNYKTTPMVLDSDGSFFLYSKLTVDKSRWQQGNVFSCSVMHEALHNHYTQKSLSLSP
light: B1 light
notes: as for B2
KD fold (SG1 = 1) [1]: 0.6 fold
KD fold (SG1 = 1) [2]: 1.4 fold
KD fold (SG1 = 1) [3]: 3 fold
KD fold (SG1 = 1) [4]: 2 fold
KD fold (SG1 = 1) [5]: 2.4 fold
KD fold (SG1 = 1) [6]: 0.07 fold
KD fold (SG1 = 1) [7]: 2.3 fold
KD fold (SG1 = 1) [8]: 0.4 fold

B5: M103205H795-MY049/M103202L889-SK1 (antibody, human IgG1, kappa)
heavy: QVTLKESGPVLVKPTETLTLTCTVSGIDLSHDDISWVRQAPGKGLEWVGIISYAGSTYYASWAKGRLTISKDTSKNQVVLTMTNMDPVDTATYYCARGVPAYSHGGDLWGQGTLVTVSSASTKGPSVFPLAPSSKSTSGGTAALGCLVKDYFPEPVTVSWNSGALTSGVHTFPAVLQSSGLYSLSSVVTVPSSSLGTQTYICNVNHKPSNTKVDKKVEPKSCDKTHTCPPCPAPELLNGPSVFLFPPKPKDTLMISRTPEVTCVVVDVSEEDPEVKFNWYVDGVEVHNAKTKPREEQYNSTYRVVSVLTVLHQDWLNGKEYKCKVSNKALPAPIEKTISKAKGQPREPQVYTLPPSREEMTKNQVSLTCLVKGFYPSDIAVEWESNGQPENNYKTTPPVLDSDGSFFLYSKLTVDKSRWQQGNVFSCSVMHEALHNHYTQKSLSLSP
light: B1 light
notes: as for B2
KD fold (SG1 = 1) [1]: 0.4 fold
KD fold (SG1 = 1) [2]: 3.1 fold
KD fold (SG1 = 1) [3]: 2.2 fold
KD fold (SG1 = 1) [4]: 2.1 fold
KD fold (SG1 = 1) [5]: 2.6 fold
KD fold (SG1 = 1) [6]: 0.1 fold
KD fold (SG1 = 1) [7]: 1.2 fold
KD fold (SG1 = 1) [8]: 0.1 fold

B6: M103205H795-MY279/M103202L889-SK1 (antibody, human IgG1, kappa)
heavy: QVTLKESGPVLVKPTETLTLTCTVSGIDLSHDDISWVRQAPGKGLEWVGIISYAGSTYYASWAKGRLTISKDTSKNQVVLTMTNMDPVDTATYYCARGVPAYSHGGDLWGQGTLVTVSSASTKGPSVFPLAPSSKSTSGGTAALGCLVKDYFPEPVTVSWNSGALTSGVHTFPAVLQSSGLYSLSSVVTVPSSSLGTQTYICNVNHKPSNTKVDKKVEPKSCDKTHTCPPCPAPELLHGPSVFLFPPKPKDTLMISRTPEVTCVVVDVSDEDPEVKFNWYVDGVEVHNAKTKPREELYNSTYRVVSVLTVLHQDWLNGKEYKCKVSNKALPKPIEKTISKAKGQPREPQVYTLPPSREEMTKNQVSLTCLVKGFYPSDIAVEWESNGQPENNYKTTPPVLDSDGSFFLYSKLTVDKSRWQQGNVFSCSVMHEALHNHYTQKSLSLSP
light: B1 light
KD fold (SG1 = 1) [9]: 0.15 fold

B7: M103205H795-MY280/M103202L889-SK1 (antibody, human IgG1, kappa)
heavy: B6 heavy with H238V
light: B1 light
KD fold (SG1 = 1) [9]: 0.2 fold

B8: M103205H795-MY281/M103202L889-SK1 (antibody, human IgG1, kappa)
heavy: B6 heavy with H238Q
light: B1 light
KD fold (SG1 = 1) [9]: 0.49 fold

B9: M103205H795-MY292/M103202L889-SK1 (antibody, human IgG1, kappa)
heavy: B6 heavy with H238G, G239Y, P398M
light: B1 light
KD fold (SG1 = 1) [9]: 0.05 fold

B10: M103205H795-MY293/M103202L889-SK1 (antibody, human IgG1, kappa)
heavy: B6 heavy with H238G, G239Y, D270E, P398K
light: B1 light
KD fold (SG1 = 1) [9]: 0.05 fold

B11: M103205H795-MY308/M103202L889-SK1 (antibody, human IgG1, kappa)
heavy: B6 heavy with H238T, D270E, L297Q
light: B1 light
KD fold (SG1 = 1) [9]: 0.16 fold

B12: M103205H795-MY309/M103202L889-SK1 (antibody, human IgG1, kappa)
heavy: B6 heavy with H238T, D270E, L297Q, P398M
light: B1 light
KD fold (SG1 = 1) [9]: 0.3 fold

B13: M103205H795-MY310/M103202L889-SK1 (antibody, human IgG1, kappa)
heavy: B6 heavy with H238T, D270E, L297Q, K328T
light: B1 light
KD fold (SG1 = 1) [9]: 0.2 fold

B14: M103205H795-MY311/M103202L889-SK1 (antibody, human IgG1, kappa)
heavy: B6 heavy with H238T, D270E
light: B1 light
KD fold (SG1 = 1) [9]: 0.35 fold

B15: M103205H795-MY312/M103202L889-SK1 (antibody, human IgG1, kappa)
heavy: B6 heavy with H238T, D270E, L297Q, K328T, P398M
light: B1 light
KD fold (SG1 = 1) [9]: 0.55 fold

B16: M103205H795-MY318/M103202L889-SK1 (antibody, human IgG1, kappa)
heavy: B6 heavy with H238L, D270E, L297Q, K328T, P398M
light: B1 light
KD fold (SG1 = 1) [9]: 0.24 fold

B17: M103205H795-MY321/M103202L889-SK1 (antibody, human IgG1, kappa)
heavy: B6 heavy with L297Q, P398M
light: B1 light
KD fold (SG1 = 1) [9]: 0.33 fold
